Results taken from patent publication US9920105B2, “Human ferritin-derived fusion polypeptide” (Kyungpook National University Industry-Academic Cooperation …, priority 2013, dated 2018).

Experiments:
[1] = system: A549 cells overexpressing IL-4 receptor; assay: Cell binding test using flow cytometry (FACS); type: cell-based, human
Procedure: First, A549 cells were grown to about 80% confluence in a 100 mm-diameter plate. The plated cells were washed twice with PBS, and detached from the plate using Trypsin/EDTA. Then, 2×10^5/100 μl cells were suspended in PBS containing 1% bovine serum albumin (BSA), and incubated at 4° C. for 30 min. […] The above blocking procedure was performed on one group, and was not performed on the other group, and the following experiment was performed on both groups. After washing twice with PBS, the ferritin without AP1 insertion and the AP1-inserted ferritin were diluted to 400 nM in buffer (20 mM Tris, 150 mM NaCl, 180 mM Histidine), and then allowed to bind at 4° C. for 20 min. After washing twice with PBS, the ferritin light chain antibody (D-18, sc-14420) was diluted to 1:400 in PBS buffer containing 1% BSA, and incubated in ice for 30 min. After washing twice with PBS, Alexa Fluor 488 donkey anti-goat IgG (H+L) antibody (invitrogen, USA) was diluted to 1:200 in PBS containing 1% BSA, and incubated in ice for 30 min. After washing twice with PBS, the cells were suspended in 500 ul PBS, and analyzed with FACS.
First, A549 cells were grown to about 80% confluence in a 100 φ plate. The plated cells were washed twice with PBS, and detached from the plate using Trypsin/EDTA. […] After washing twice with PBS, the cells were suspended in 500 ul PBS, and then analyzed with FACS.

[2] = system: A549 cells overexpressing IL-4 receptor; assay: Cell binding test using confocal microscope; type: cell-based; details: 400 nM, 4° C., 20 min, FIG. 6
Procedure: First, A549 cells were grown to about 80% confluence in a 100 mm-diameter plate. The plated cells were washed twice with PBS, and detached from the plate using Trypsin/EDTA. Then, 2×10^5/100 ul cells were suspended in PBS containing 1% bovine serum albumin (BSA), and incubated at 4° C. for 30 min. After washing twice with PBS, the ferritin without AP1 insertion and the AP1-inserted ferritin were diluted to 400 nM in buffer (20 mM Tris, 150 mM NaCl, 180 mM Histidine), and then allowed to bind at 4° C. for 20 min. After washing twice with PBS, the ferritin light chain antibody (D-18, sc-14420) was diluted to 1:400 in PBS buffer containing 1% BSA, and incubated in ice for 30 min. After washing twice with PBS, Alexa Fluor 488 donkey anti-goat IgG (H+L) antibody was diluted to 1:200 in PBS containing 1% BSA, and then incubated in ice for 30 min. After washing twice with PBS, 4% paraformaldehyde (PFA) was added for cell fixation, and cells in suspension were added in the 8-well slide chamber. The cells were attached in the chamber by centrifugation at 1000 rpm for 10 min.
After washing twice with PBS, the cells were stained by incubation with 4′,6-diamidino-2-phenylindole (DAPI) for 3 min in dark place, mounted in antifade reagent to close a cover glass, and analyzed by Z-stack type confocal microscopy.

integrin alphavbeta3 = integrin alphavbeta3 (Homo sapiens, UniProt P05106+P06756); assay: SPR analysis of binding affinity to integrin alphavbeta3; details: FIG. 16
integrin alphavbeta3, sequence (P06756 31-1048): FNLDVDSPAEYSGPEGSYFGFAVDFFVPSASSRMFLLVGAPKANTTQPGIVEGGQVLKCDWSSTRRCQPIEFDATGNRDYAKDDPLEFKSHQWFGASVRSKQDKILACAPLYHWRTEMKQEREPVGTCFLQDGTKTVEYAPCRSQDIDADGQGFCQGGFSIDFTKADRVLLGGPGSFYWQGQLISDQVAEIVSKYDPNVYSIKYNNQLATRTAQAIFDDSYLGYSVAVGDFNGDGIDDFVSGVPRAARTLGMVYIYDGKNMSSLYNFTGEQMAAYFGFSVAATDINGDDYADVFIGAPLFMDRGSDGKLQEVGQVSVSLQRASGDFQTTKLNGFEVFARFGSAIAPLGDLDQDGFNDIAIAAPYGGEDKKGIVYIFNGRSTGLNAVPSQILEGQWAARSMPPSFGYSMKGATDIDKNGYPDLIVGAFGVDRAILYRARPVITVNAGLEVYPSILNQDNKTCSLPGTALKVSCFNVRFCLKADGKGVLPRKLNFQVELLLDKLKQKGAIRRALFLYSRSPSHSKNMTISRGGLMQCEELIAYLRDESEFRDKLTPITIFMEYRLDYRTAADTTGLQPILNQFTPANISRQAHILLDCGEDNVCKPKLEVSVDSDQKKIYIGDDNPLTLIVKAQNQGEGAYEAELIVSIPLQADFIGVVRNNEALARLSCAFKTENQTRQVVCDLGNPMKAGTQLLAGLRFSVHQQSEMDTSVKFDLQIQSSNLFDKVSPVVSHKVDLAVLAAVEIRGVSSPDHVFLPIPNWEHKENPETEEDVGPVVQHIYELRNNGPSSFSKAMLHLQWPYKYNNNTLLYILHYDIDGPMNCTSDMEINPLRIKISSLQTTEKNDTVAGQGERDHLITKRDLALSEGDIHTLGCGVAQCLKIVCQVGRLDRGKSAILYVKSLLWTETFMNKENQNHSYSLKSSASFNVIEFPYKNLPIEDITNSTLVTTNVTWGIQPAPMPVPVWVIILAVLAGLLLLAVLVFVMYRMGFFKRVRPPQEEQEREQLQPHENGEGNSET
integrin alphavbeta3, sequence (P05106 27-788): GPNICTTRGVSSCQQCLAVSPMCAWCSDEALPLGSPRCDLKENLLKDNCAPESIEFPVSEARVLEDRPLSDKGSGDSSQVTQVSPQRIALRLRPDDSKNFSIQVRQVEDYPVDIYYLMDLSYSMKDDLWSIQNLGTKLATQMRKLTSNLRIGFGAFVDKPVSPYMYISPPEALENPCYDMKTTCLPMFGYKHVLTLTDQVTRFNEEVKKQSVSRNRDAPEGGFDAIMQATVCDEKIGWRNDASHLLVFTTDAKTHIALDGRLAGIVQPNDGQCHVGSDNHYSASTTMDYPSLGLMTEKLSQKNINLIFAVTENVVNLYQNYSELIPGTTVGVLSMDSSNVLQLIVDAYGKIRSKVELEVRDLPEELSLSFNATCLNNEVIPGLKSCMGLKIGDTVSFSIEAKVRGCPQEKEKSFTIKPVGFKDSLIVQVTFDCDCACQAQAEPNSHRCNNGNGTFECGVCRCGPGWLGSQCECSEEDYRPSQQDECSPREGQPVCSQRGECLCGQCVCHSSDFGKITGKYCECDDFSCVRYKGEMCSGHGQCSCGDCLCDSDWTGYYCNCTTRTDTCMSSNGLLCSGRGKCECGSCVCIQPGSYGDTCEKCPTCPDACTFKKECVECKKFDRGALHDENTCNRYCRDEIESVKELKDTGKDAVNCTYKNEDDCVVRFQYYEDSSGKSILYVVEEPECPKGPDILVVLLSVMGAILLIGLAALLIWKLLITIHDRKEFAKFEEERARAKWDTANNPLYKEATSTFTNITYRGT
Procedure: Then, 40 mM N-(3-dimethylaminopropyl)-N′-ethylcarbodiimide hydrochloride (EDC)/10 mM N-hydroxy-succinimide (NHS) were allowed to flow over each channel (left, right) of carboxymethyl dextran chip for 7 min for surface activation, and then 200 ul of the prepared alphavbeta3 protein was allowed to flow over the left channel for 7 min for immobilization. Here, the right channel was used as a reference channel. In the two channels, left channel and right channel, 1M ethanolamine (pH 8.5) solution was allowed to flow over the unreacted surface for 7 min for blocking, so as to reduce non-specific adsorption thereof. All test procedures were conducted at a temperature of 25° C. and the flow rate was 25 ul/min.
The buffer (10 mM Hepes pH 7.4, 150 mM NaCl, 180 mM Histidine, 1 mM MgCl2, 0.005% Tween 20) was used through filtering and degassing. The wild type ferritin and the RGD-inserted ferritins were allowed to flow over at concentrations of 0.65 nM, 1.3 nM, 2.6 nM, 5.2 nM, 10.4 nM, 20.8 nM, and 41.6 nM, respectively, for 3 min, and the same buffer was allowed to flow over for 3 min. For regeneration, 2 M NaCl was allowed to flow over for 1 min to wash the proteins remaining without dissociation. […]
(§1) In the binding graph, the RU value expressing the amount of bound protein was measured by subtracting the blank (buffer) value and reference channel (right channel) value, using Scrubber software.

IL-4 receptor = biological target: T1, IL-4 receptor (Homo sapiens, UniProt P24394); assay: Surface plasmon resonance (SPR) analysis of binding affinity to immobilised IL-4 receptor; details: Table 4
T1 sequence (P24394 26-825): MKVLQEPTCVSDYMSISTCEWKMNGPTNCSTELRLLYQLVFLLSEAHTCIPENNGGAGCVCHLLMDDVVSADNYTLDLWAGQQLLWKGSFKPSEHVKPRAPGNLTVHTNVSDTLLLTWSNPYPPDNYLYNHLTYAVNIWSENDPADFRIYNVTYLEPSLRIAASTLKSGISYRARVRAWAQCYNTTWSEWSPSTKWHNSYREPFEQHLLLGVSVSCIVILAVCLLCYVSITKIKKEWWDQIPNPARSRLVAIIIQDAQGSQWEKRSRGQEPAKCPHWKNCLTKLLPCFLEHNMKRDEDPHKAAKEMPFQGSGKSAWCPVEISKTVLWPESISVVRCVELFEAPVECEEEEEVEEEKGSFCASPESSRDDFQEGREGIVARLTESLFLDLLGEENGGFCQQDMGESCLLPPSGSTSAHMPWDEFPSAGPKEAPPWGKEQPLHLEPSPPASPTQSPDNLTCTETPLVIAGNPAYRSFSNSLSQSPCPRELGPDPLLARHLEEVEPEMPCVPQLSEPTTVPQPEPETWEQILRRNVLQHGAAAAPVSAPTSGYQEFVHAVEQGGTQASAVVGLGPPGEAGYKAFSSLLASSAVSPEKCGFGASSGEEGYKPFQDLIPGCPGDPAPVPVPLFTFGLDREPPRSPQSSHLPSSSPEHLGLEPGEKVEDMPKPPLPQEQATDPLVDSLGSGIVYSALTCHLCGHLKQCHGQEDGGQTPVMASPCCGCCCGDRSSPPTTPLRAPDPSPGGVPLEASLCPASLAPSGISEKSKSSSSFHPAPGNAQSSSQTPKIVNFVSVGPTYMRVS
Procedure: Here, the right channel was used as a reference channel. In the two channels, left channel and right channel, 1M ethanolamine (pH 8.5) solution was allowed to flow over the unreacted surface for 7 min for blocking, so as to reduce non-specific adsorption thereof. All test procedures were conducted at a temperature of 25° C. and the flow rate was 25 ul/min.
The buffer (20 mM Tris-HCl pH 8.0, 150 mM NaCl, 180 mM Histidine, 62.5 ug/ml BSA, 0.005% Tween 20) was used through filtering and degassing. The wild type ferritin and the AP1-inserted ferritins were allowed to flow over at concentrations of 0.65 nM, 1.3 nM, 2.6 nM, 5.2 nM, 10.4 nM, 20.8 nM, and 41.6 nM for 3 min, and the same buffer was allowed to flow over for 3 min. For regeneration, 2 M NaCl was allowed to flow over for […] to wash the proteins remaining without dissociation. Specific binding values, obtained by subtracting the right channel value from the left channel value, in the concentration ranging from 0.65 nM to 10.4 nM, were plotted on a graph.
AP1 peptide was allowed to flow over at concentrations of 3.125 uM, 6.25 uM, 12.5 uM, 25 uM, and 50 uM for 3 min, and the same buffer was allowed to flow over for 3 min. For regeneration, 2 M NaCl was allowed to flow over for 1 min to wash the proteins remaining without dissociation. Specific binding values, obtained by subtracting the right channel value from the left channel value, in the respective concentrations, were plotted on a graph (see FIG. 8).
as §1, with “software. The KD value was obtained from the binding RU (Req) values measured at the respective concentrations using KaleidaGraph software.” for “software.”
The experiment was conducted like in example <5-1>, and RU values shown for concentrations ranging from 0.65 nM to 41.6 nM were plotted on a graph using GraphPad prism 4 program.
For comparison of binding affinity between FTL-AP1 and FTL-AP1_AP1, surface plasmon resonance analysis was conducted. Analysis was conducted by the same method as in Example <5-1>. The binding of FTL-AP1 was analyzed at concentrations of 0.26 nM, 1.041 nM, 2.083 nM, and 4.166 nM, respectively, and the binding of FTL-AP1_AP1 was analyzed at concentrations of 0.520 nM, 1.041 nM, 2.083 nM, and 4.166 nM, respectively.

wild type ferritin: human ferritin light chain (SEQ ID NO: 1) without AP1 insertion, control cage [reference compound]
binding to IL-4 receptor in A549 cells (FACS) ([1]; 400 nM, 4° C., 20 min, FIG. 5): did not bind to IL-4 receptor | binding to A549 cells / cell membrane (confocal microscopy) [2]: did not bind to A549 cells

B1: FTL-RGD-AP1: human ferritin light chain with inserted RGD and AP1 peptides (AP1 exchanged with RGD relative to FTL-AP1_RGD) (protein)
chain: MRGDGGGSGMSSQIRQNYSTDVEAAVNSLVNLYLQASYTYLSLGFYFDRDDVALEGVSHFFRELAEEKREGYERLLKMQNQRGGRALFQDIKKPAEDEWGKTPDAMKAAMALEKKLNQALLDLHALGSARTDPHLCDFLETHFLDEEVKLIKKMGDHLTNLHRGSRKRLDRNGGPEAGLGEYLFERLTLKHD
modifications: left off: small tags and cut ends
binding to integrin alphavbeta3 (integrin alphavbeta3): bound to integrin alphavbeta3 in a concentration-dependent manner

B2: GG-AP1S: human ferritin light chain with AP1S (RKRLDRN) inserted in GG cassette of the fourth loop; named FTL-AP1 in Examples 6-9 (protein)
chain: MSSQIRQNYSTDVEAAVNSLVNLYLQASYTYLSLGFYFDRDDVALEGVSHFFRELAEEKREGYERLLKMQNQRGGRALFQDIKKPAEDEWGKTPDAMKAAMALEKKLNQALLDLHALGSARTDPHLCDFLETHFLDEEVKLIKKMGDHLTNLHRGSRKRLDRNGGPEAGLGEYLFERLTLKHD
modifications: left off: small tags and cut ends
Koff (IL-4 receptor): 1.25 ± 0.4 × 10^−3 S^−1 | Kon (IL-4 receptor): 1.22 ± 0.64 × 10^6 M^−1S^−1

B3: FTL-AP1_AP1: fusion polypeptide in which AP1S was additionally fused to N-terminal of FTL_GG-AP1S (protein)
chain: MRKRLDRNGGGSGMSSQIRQNYSTDVEAAVNSLVNLYLQASYTYLSLGFYFDRDDVALEGVSHFFRELAEEKREGYERLLKMQNQRGGRALFQDIKKPAEDEWGKTPDAMKAAMALEKKLNQALLDLHALGSARTDPHLCDFLETHFLDEEVKLIKKMGDHLTNLHRGSRKRLDRNGGPEAGLGEYLFERLTLKHD
modifications: left off: small tags and cut ends
Koff (IL-4 receptor): 3.8 × 10^−5 S^−1 | Kon (IL-4 receptor): 8.26 × 10^5 M^−1S^−1 | amount bound to IL-4 receptor compared with FTL-AP1 (FACS) ([1]; at 400 nM and 200 nM, FIG. 13): larger amount than FTL-AP1

B4: FTL-GRGDSP-AP1: ferritin having inserted GRGDSP and AP1 peptides (protein)
chain: MGRGDSPGGGSGMSSQIRQNYSTDVEAAVNSLVNLYLQASYTYLSLGFYFDRDDVALEGVSHFFRELAEEKREGYERLLKMQNQRGGRALFQDIKKPAEDEWGKTPDAMKAAMALEKKLNQALLDLHALGSARTDPHLCDFLETHFLDEEVKLIKKMGDHLTNLHRGSRKRLDRNGGPEAGLGEYLFERLTLKHD
modifications: left off: small tags and cut ends
notes: ferritin having inserted GRGDSP and AP1 peptides
binding to integrin alphavbeta3 (integrin alphavbeta3): bound to integrin alphavbeta3 in a concentration-dependent manner
